{"source": "patent US20110151450", "test_in_all_cases": "cleavage_in_vitro", "key": {"[1]": {"target": "T1, DpnII-WT (Diplococcus pneumoniae) (UniProt P09357)", "T1 sequence": "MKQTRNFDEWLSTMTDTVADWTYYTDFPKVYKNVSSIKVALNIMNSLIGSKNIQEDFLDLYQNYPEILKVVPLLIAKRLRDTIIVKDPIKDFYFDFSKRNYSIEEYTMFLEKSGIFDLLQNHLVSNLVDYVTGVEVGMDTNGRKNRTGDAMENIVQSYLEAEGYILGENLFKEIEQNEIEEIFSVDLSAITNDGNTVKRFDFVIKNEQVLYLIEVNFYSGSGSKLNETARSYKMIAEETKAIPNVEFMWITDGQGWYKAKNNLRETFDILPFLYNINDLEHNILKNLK", "details": "NEB4, relative activity 25%"}, "[2]": {"test_system": "BanII-HF R126A (Bacillus aneurinolyticus)", "details": "NEB4, relative activity 50%"}, "[3]": {"target": "T2, BanII-WT (Bacillus aneurinolyticus) (UniProt P19887)", "T2 sequence": "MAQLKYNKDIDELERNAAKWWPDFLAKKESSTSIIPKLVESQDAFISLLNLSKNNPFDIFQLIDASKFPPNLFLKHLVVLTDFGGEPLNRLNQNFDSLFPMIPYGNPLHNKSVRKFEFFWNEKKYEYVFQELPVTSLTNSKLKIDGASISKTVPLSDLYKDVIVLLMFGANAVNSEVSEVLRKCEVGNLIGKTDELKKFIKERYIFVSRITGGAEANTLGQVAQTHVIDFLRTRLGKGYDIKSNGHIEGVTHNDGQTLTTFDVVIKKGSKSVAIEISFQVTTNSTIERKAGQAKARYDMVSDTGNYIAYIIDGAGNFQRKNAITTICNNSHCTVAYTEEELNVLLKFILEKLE", "details": "NEB4, relative activity 100%"}, "NruI-WT (Nocardia rubra)": {"test_system": "T3, NruI-WT (Nocardia rubra)", "T3 sequence": "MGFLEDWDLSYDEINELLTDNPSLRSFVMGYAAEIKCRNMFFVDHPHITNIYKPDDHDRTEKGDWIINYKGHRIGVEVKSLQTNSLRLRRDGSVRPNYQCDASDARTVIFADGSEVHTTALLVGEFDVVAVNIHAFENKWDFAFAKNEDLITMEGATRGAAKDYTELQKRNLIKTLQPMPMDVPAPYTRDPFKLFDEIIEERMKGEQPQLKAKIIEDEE", "details": "NEB4, relative activity 12.5%"}, "[4]": {"test_system": "T4, BclI-WT (Bacillus caldolyticus)", "T4 sequence": "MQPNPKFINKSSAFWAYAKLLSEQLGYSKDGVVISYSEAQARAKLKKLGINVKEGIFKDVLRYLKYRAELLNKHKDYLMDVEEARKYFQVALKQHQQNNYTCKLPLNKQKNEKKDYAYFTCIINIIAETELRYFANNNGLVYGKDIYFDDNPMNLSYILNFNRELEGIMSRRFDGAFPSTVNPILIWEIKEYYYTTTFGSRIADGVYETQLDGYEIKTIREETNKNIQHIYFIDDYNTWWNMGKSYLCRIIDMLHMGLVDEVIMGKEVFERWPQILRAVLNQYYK", "details": "NEB4, relative activity 100%"}, "[5]": {"test_system": "T5, BclI-HF Y192F (Bacillus caldolyticus)", "T5 sequence": "T4 sequence with Y192F", "details": "NEB4, relative activity 100%"}, "[6]": {"target": "T6, DpnII-HF R199A (Diplococcus pneumoniae) (UniProt P09357)", "T6 sequence": "T1 sequence with R199A", "details": "NEB4, relative activity 100%"}, "[7]": {"test_system": "T7, NruI-HF P22A/R90A (Nocardia rubra)", "T7 sequence": "T3 sequence with P22A, R90A", "details": "NEB4, relative activity 100%"}, "[8]": {"target": "T8, BanI-WT (Bacillus aneurinolyticus) (UniProt P19887)", "T8 sequence": "T2 sequence", "details": "NEB4, relative activity 100%"}, "[9]": {"target": "T9, BglI-HF K225A (Bacillus globigii) (UniProt O68557)", "T9 sequence": "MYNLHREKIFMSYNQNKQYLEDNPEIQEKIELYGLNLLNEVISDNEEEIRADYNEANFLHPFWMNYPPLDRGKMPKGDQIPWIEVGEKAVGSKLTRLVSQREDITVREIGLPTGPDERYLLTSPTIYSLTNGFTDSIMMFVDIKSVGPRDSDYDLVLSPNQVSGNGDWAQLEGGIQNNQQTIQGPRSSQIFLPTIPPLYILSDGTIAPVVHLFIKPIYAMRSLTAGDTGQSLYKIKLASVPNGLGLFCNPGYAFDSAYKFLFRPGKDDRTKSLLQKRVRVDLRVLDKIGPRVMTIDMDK", "details": "NEB4, relative activity 100%"}, "[10]": {"test_system": "T10, MluI-WT (Micrococcus luteus)", "T10 sequence": "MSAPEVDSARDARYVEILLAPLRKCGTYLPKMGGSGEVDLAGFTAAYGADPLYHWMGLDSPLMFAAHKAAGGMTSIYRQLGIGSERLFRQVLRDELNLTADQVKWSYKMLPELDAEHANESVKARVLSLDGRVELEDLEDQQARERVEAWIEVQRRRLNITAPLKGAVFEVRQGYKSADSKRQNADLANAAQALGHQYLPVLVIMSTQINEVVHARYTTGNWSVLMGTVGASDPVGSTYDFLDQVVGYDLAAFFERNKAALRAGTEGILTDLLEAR", "details": "NEB4, relative activity 25%"}, "[11]": {"test_system": "T11, BstEII-HF R105A (Bacillus stearothermophilus)", "T11 sequence": "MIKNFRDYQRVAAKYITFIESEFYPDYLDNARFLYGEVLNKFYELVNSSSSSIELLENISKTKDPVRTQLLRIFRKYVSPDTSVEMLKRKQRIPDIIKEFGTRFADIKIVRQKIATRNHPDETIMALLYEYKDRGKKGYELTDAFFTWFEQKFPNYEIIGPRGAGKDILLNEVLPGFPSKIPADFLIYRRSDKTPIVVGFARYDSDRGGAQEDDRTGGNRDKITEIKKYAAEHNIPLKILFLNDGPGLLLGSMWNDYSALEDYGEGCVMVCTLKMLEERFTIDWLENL", "details": "NEB4, relative activity 100%"}, "[12]": {"target": "T12, BglI-WT (Bacillus globigii) (UniProt O68557)", "T12 sequence": "T9 sequence with A225K", "details": "NEB4, relative activity 50%"}, "[13]": {"test_system": "T13, BstEII-WT (Bacillus stearothermophilus)", "T13 sequence": "T11 sequence with A105R", "details": "NEB4, relative activity 100%"}, "[14]": {"target": "T14, BanI-HF Q292A (Bacillus aneurinolyticus) (UniProt P19887)", "T14 sequence": "T2 sequence with Q292A", "details": "NEB4, relative activity 100%"}, "[15]": {"test_system": "T15, MluI-HF E112A/R132A (Micrococcus luteus)", "T15 sequence": "T10 sequence with E112A, R132A", "details": "NEB4, relative activity 100%"}, "NspI-WT (Nostoc species)": {"test_system": "T16, NspI-WT (Nostoc species)", "T16 sequence": "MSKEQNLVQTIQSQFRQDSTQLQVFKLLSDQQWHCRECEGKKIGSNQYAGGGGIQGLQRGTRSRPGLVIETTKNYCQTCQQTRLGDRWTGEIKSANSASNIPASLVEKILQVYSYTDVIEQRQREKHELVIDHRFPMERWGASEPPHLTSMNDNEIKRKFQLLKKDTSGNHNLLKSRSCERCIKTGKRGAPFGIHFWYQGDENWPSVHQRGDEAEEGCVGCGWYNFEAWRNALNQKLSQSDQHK", "details": "NEB4, BSA, relative activity 50%"}, "[16]": {"test_system": "T17, NspI-HF S97A (Nostoc species)", "T17 sequence": "T16 sequence with S97A", "details": "NEB4, BSA, relative activity 100%"}}, "note": "Numbering of substitutions follows the chain as printed."}
{"substance": "dam- lambda DNA", "values": [{"measurement": "activity (fidelity index)", "setting": "[1]", "value": 1}, {"measurement": "activity (fidelity index)", "setting": "[2]", "value": "> 2000"}, {"measurement": "activity (fidelity index)", "setting": "[3]", "value": 16}, {"measurement": "activity (fidelity index)", "setting": "NruI-WT (Nocardia rubra)", "value": 32}, {"measurement": "activity (fidelity index)", "setting": "[4]", "value": 32}, {"measurement": "activity (fidelity index)", "setting": "[5]", "value": "> 2000"}, {"measurement": "activity (fidelity index)", "setting": "[6]", "value": 8000}, {"measurement": "activity (fidelity index)", "setting": "[7]", "value": "> 16000"}]}
{"substance": "lambda DNA", "values": [{"measurement": "activity (fidelity index)", "setting": "[8]", "value": 16}, {"measurement": "activity (fidelity index)", "setting": "[9]", "value": "> 8000"}, {"measurement": "activity (fidelity index)", "setting": "[10]", "value": 32}, {"measurement": "activity (fidelity index)", "setting": "[11]", "value": "> 2000"}, {"measurement": "activity (fidelity index)", "setting": "[12]", "value": 32}, {"measurement": "activity (fidelity index)", "setting": "[13]", "value": 4}, {"measurement": "activity (fidelity index)", "setting": "[14]", "value": "> 2000"}, {"measurement": "activity (fidelity index)", "setting": "[15]", "value": "> 32000"}]}
{"substance": "pUC19 plasmid", "values": [{"measurement": "activity (fidelity index)", "setting": "NspI-WT (Nostoc species)", "value": 32}, {"measurement": "activity (fidelity index)", "setting": "[16]", "value": 500}]}
